The labels stand for the following.
B1: Rubredoxin, P24297 (parent)
chain: MAKWVCKICGYIYDEDAGDPDNGISPGTKFEELPDDWVCPICGAPKSEFEKLED

In the data set the parent is B1. As to conditions: Pyrococcus furiosus (strain ATCC 43587 / DSM 3638 / JCM 8422 / Vc1), pH 6.3, CD, Sodium phosphate 50 mM, reversible: yes, structure 1BRF, whole UniProt chain shown; for denaturant m value / denaturant midpoint (higher = more stable) / unfolding free energy: 1 °C; for Tm: Thermal.

This note sets out measurements from FireProtDB (doi:10.1021/bi992257j).

For the variant MAKWVLKITGYIYDEDAGDPDNGISPGTKFEELPDDWVAPITGAPKSEFAKLED [C6L C9T C39A C42T E50A], the midpoint of thermal melting (Tm) is 77 °C. For the setting “GdnHCl”, the denaturant m value amounted to 2.3 kcal/mol/M, the “denaturant midpoint (higher = more stable)” value (shortened to “denaturant midpoint”) stood at 1.35 M and the unfolding free energy worked out at 3.1 kcal/mol. Where the note is “Urea”, the denaturant m value was determined as 0.86 kcal/mol/M, the “denaturant midpoint” value was 4.8 M and the unfolding free energy is 4.1 kcal/mol.

For MAKWVLAITGYIYDEDAGDPDNGISPGTKFEELPDDWVAPITGAPKSEFEKLED [C6L C9T C39A C42T K7A], the melting temperature (Tm) was found to be 74 °C. For the same variant, under “GdnHCl”, the denaturant m value is 2 kcal/mol/M, the “denaturant midpoint” value worked out at 1.6 M and the unfolding free energy was determined as 3.2 kcal/mol. Where the note is “Urea”, the denaturant m value is 0.81 kcal/mol/M, the “denaturant midpoint” value was found to be 4.9 M and the unfolding free energy turned out to be 4 kcal/mol.

Regarding MQKWVLKITGYIYDEDAGDPDNGISPGTKFEELPDDWVAPITGAPKSEFEKLED [C6L C9T C39A C42T A2Q], the Tm turned out to be 63 °C. Also, where the note is “Urea”, the denaturant m value was found to be 0.93 kcal/mol/M, the “denaturant midpoint” value was 3.8 M and the unfolding free energy was determined as 3.5 kcal/mol.

MQKWVLKITGYIYDQDAGDPDNGISPGTKFEELPDDWVAPITGAPKSEFEKLED [C6L C9T C39A C42T A2Q E15Q]: the Tm is 39 °C. Further, under “GdnHCl”, the denaturant m value is 3 kcal/mol/M, the “denaturant midpoint” value was found to be 0.5 M and the unfolding free energy is 1.5 kcal/mol. In addition, where the note is “Urea”, the denaturant m value turned out to be 1.03 kcal/mol/M, the “denaturant midpoint” value was determined as 2 M and the unfolding free energy stood at 2.1 kcal/mol.

MQKWVLKITGYIYDTDAGDPDNGISPGTKFEELPDDWVAPITGAPKSEFEKLED [C6L C9T C39A C42T A2Q E15T]: the melting temperature (Tm) was 41 °C. Also, for the setting “Urea”, the denaturant m value came out at 1.03 kcal/mol/M, the “denaturant midpoint” value was determined as 1.6 M and the unfolding free energy came out at 1.7 kcal/mol.

In the case of MAKWVLKITGYIYDTDAGDPDNGISPGTKFEELPDDWVAPITGAPKSEFEKLED [C6L C9T C39A C42T E15T], the Tm came out at 38 °C. For the setting “Urea”, the denaturant m value came out at 0.98 kcal/mol/M, the “denaturant midpoint” value amounted to 1.3 M and the unfolding free energy was determined as 1.3 kcal/mol.

For MAKWVLKITGYIYDQDAGDPDNGISPGTKFEELPDDWVAPITGAPKSEFEKLED [C6L C9T C39A C42T E15Q], the Tm was found to be 57 °C. Besides, under “GdnHCl”, the denaturant m value was 2.5 kcal/mol/M, the “denaturant midpoint” value came out at 0.63 M and the unfolding free energy was found to be 1.7 kcal/mol. Also, under “Urea”, the denaturant m value is 0.91 kcal/mol/M, the “denaturant midpoint” value is 3 M and the unfolding free energy was determined as 2.7 kcal/mol.

On to MAKWVLAITGYIYDEDAGDPDNGISPGTKFEELPDDWVAPITGAPKSEFAKLED [C6L C9T C39A C42T K7A E50A], for which the Tm was found to be 74 °C. Besides, under “GdnHCl”, the denaturant m value is 2.2 kcal/mol/M, the “denaturant midpoint” value was 1.27 M and the unfolding free energy came out at 2.8 kcal/mol. For the setting “Urea”, the denaturant m value stood at 0.84 kcal/mol/M, the “denaturant midpoint” value was 4.5 M and the unfolding free energy worked out at 3.8 kcal/mol.

MAKWVLKITGYIYDEDAGDPDNGISPGTKFEELPDDWVAPITGAPKSEFEKLED [C6L C9T C39A C42T]: the Tm came to 82 °C. In addition, where the note is “GdnHCl”, the denaturant m value worked out at 1.9 kcal/mol/M, the “denaturant midpoint” value was 1.68 M and the unfolding free energy was determined as 3.2 kcal/mol.

The Tm is the temperature at the midpoint of the melting transition.
